From patent US20080064629A1, “Amphiregulin as a Protective Agent in Acute Hepatic Injury” (priority 2004, published 2008)

Tests used:
[1] = test system: male C57/BL6 mice; test: Acute liver damage induced by CCl4 in mice, treatment with AR; format: in vivo; settings: AR 9.5 μg/mouse i.p. 0.5 h before and 12 h after CCl4
Procedure: The experiments were carried out in compliance with the guidelines of the University of Navarra relating to the use of laboratory animals. Cirrhosis was induced with CCl4 in male Wistar rats as described elsewhere [(16) Castilla-Cortazar, I., Garcia, M., Muguerza, B., Quiroga, J., Perez, R., Santidrian, S., Prieto, J. 1997. Hepatoprotective effects of insulin-like growth factor I in rats with carbon tetrachloride-induced cirrhosis. Gastroenterology 113:1682-1691). Two-thirds PH or sham operations were performed on male Wistar rats (150 g) and male C57/BL6 mice (20 g) according to the method of Higgins and Andersen [(17) Higgins, G. M., Andersen, R. M. 1931. Experimental pathology of liver: restoration of liver of the white rat following partial surgical removal. Arch. Pathol. 12:186-202. (18) Latasa, M. U., Boukaba, A., García-Trevijano, E. R., Torres, L., Rodríguez, J. L., Caballería, J., Lu, S. C., López-Rodas, G., Franco, L., Mato, J. M., et al. 2001. Hepatocyte growth factor induces MAT2A expression and histone acetylation in rat hepatocytes. Role in liver regeneration. FASEB J. 10.1096/fj.00-0556fje. (19) Chen, L., Zeng, Y., Yang, H., Lee, T. D., French, S. W., Corrales, F. J., García-Trevijano, E. R., Avila, M. A., Mato, J. M., and Lu, S. C. 2004. Impaired liver regeneration in mice lacking methionine adenosyltransferase 1A. FASEB J. 18: 914-916]. Following sedation, in the sham operated animals the liver was exposed and then returned to the abdominal cavity. […] At the indicated timepoints, mice were subjected to blood sampling and the sera were analysed for alanine and aspartate aminotransferase (ALT and AST) as described elsewhere [(16) and (21) Lasarte, J. J., Sarobe, P., Boya, P., Casares, N., Arribillaga, L., López-Díaz of Cerio, A., Gorraiz, M., Borrás-Cuesta, F., Prieto, J. 2003. […]

[2] = test system: hepatocytes; test: Apoptosis induced by other agents (TNFα plus galactosamine, okadaic acid, TGFβ) in hepatocytes; format: cell-based; settings: okadaic acid and TGFβ, data not shown
[3] = 24 h after injection of CCl4 (1 μl/g i.p.)

B1: amphiregulin (protein)
chain: SVRVEQVVKPPQNKTESENTSDKPKRKKKGGKNGKNRRNRKKKNPCNAEFQNFCIHGECKYIEHLEAVTCKCQQEYFGERCGEKSMKTHSMIDSSLSK
notes: polypeptide growth factor belonging to the EGF family, ligand of EGF receptor; human recombinant AR (Sigma) used
- degree of histological damage (liver, H&E) ([1]; 24 h after CCl4): decreased
- serum level of ALT [1, 3]: clearly attenuated
- serum level of AST [1, 3]: clearly attenuated
- cytoprotective activity against apoptosis induced by other agents [2]: cytoprotective activity was also seen
